Assay results published in the supplement of paper PMC9112550, “Optimization of the antimicrobial peptide Bac7 by deep mutational scanning” (BMC Biology, 2022).

Test system: Escherichia coli TOP10
Assay: shrunken log2 fold change of peptide-encoding DNA abundance (4.5 h post-induction vs induction); higher = less antimicrobial activity (less host growth inhibition)
Conditions: time post-induction: 4.5 h; library: site-saturation at positions 5, 18, 19, 20
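Further: peptides expressed intracellularly from a pBAD plasmid library in pooled LB shake-flask culture, induced with 0.3% L-arabinose, DNA abundance read by NGS, three biological replicates, DESeq2 with apeglm shrinkage.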

Sequence	shrunken log2 fold change
RRIRKRPPRLPRPRPRPPVQPRP	0.83
RRIRCRPPRLPRPRPRPPPRPRP	1.9
RRIRDRPPRLPRPRPRPIDGPRP	0.0392
RRIRTRPPRLPRPRPRPWPDPRP	-0.0269
RRIRKRPPRLPRPRPRPCFVPRP	-0.0847
RRIRYRPPRLPRPRPRPLLWPRP	-0.246
RRIRMRPPRLPRPRPRPYPRPRP	0.112
RRIRKRPPRLPRPRPRPWGGPRP	0.407
RRIRSRPPRLPRPRPRPNPEPRP	0.0679
RRIRFRPPRLPRPRPRPEWVPRP	-0.0753
RRIRMRPPRLPRPRPRPMMGPRP	0.0255
RRIRYRPPRLPRPRPRPLHCPRP	-0.724
RRIRIRPPRLPRPRPRPKMMPRP	-0.596
RRIRSRPPRLPRPRPRPSGKPRP	-0.202
RRIRIRPPRLPRPRPRPVLWPRP	0.199
RRIRGRPPRLPRPRPRPGCWPRP	1.39
RRIRIRPPRLPRPRPRPIYNPRP	-1.18
RRIRLRPPRLPRPRPRPPRRPRP	0.746
RRIRMRPPRLPRPRPRPEFQPRP	0.372
RRIRLRPPRLPRPRPRPHDFPRP	-0.205
RRIRLRPPRLPRPRPRPVCTPRP	-0.0517
RRIRWRPPRLPRPRPRPEHKPRP	0.278
RRIRIRPPRLPRPRPRPDTTPRP	-0.243
RRIRMRPPRLPRPRPRPVTKPRP	0.253
RRIRFRPPRLPRPRPRPSEEPRP	-0.196

Sequence	shrunken log2 fold change
RRIRERPPRLPRPRPRPRNPPRP	-0.0856
RRIRTRPPRLPRPRPRPLDWPRP	0.398
RRIRFRPPRLPRPRPRPKMCPRP	-0.487
RRIRPRPPRLPRPRPRPWNIPRP	-0.00871
RRIRYRPPRLPRPRPRPGGEPRP	0.173
RRIRDRPPRLPRPRPRPHCEPRP	-0.0477
RRIRVRPPRLPRPRPRPIIAPRP	-0.195
RRIRCRPPRLPRPRPRPSMVPRP	-0.312
RRIRFRPPRLPRPRPRPGSVPRP	-0.147
RRIRQRPPRLPRPRPRPERDPRP	0.321
RRIRIRPPRLPRPRPRPKNDPRP	-0.867
RRIRDRPPRLPRPRPRPPRPPRP	0.616
RRIRFRPPRLPRPRPRPDYPPRP	-0.111
RRIRHRPPRLPRPRPRPVISPRP	-0.199
RRIRTRPPRLPRPRPRPRSVPRP	-0.272
RRIRGRPPRLPRPRPRPRVFPRP	1.02
RRIRNRPPRLPRPRPRPEARPRP	-0.0678
RRIRRRPPRLPRPRPRPVECPRP	-0.0238
RRIRARPPRLPRPRPRPHYEPRP	-0.234
RRIRDRPPRLPRPRPRPRPGPRP	1.6
RRIRERPPRLPRPRPRPGSSPRP	-0.331
RRIRERPPRLPRPRPRPTLRPRP	0.383
RRIRDRPPRLPRPRPRPGCAPRP	0.968
RRIRGRPPRLPRPRPRPVRQPRP	0.883
RRIRMRPPRLPRPRPRPLDCPRP	0.262

Sequence	shrunken log2 fold change
RRIRQRPPRLPRPRPRPVFAPRP	0.164
RRIRIRPPRLPRPRPRPMSGPRP	0.174
RRIRWRPPRLPRPRPRPMVRPRP	0.0171
RRIRQRPPRLPRPRPRPYWPPRP	-0.11
RRIRLRPPRLPRPRPRPIESPRP	0.033
RRIRQRPPRLPRPRPRPHMKPRP	-0.0294
RRIRSRPPRLPRPRPRPYWHPRP	-0.783
RRIRNRPPRLPRPRPRPGLNPRP	0.035
RRIRDRPPRLPRPRPRPPHMPRP	1.51
RRIRIRPPRLPRPRPRPMVQPRP	-0.0334
RRIRLRPPRLPRPRPRPKPSPRP	0.432
RRIRFRPPRLPRPRPRPPKYPRP	-0.0263
RRIRPRPPRLPRPRPRPGIPPRP	-0.157
RRIRVRPPRLPRPRPRPLCIPRP	-0.499
RRIRGRPPRLPRPRPRPLWEPRP	1.51
RRIRMRPPRLPRPRPRPYCRPRP	-0.0603
RRIRLRPPRLPRPRPRPQMFPRP	-0.427
RRIRCRPPRLPRPRPRPPRHPRP	0.646
RRIRVRPPRLPRPRPRPTGYPRP	-0.239
RRIRERPPRLPRPRPRPRETPRP	0.0334
RRIRRRPPRLPRPRPRPGTCPRP	-0.087
RRIRTRPPRLPRPRPRPNLVPRP	-0.149
RRIRARPPRLPRPRPRPVIWPRP	0.322
RRIRFRPPRLPRPRPRPTGMPRP	0.00753
RRIRDRPPRLPRPRPRPLYMPRP	0.383

Sequence	shrunken log2 fold change
RRIRCRPPRLPRPRPRPMQWPRP	0.226
RRIRLRPPRLPRPRPRPNRHPRP	-0.312
RRIRIRPPRLPRPRPRPRWGPRP	0.181
RRIRERPPRLPRPRPRPLPQPRP	-0.06
RRIRLRPPRLPRPRPRPMDLPRP	-0.171
RRIRWRPPRLPRPRPRPWLKPRP	0.0275
RRIRERPPRLPRPRPRPQQPPRP	0.166
RRIRCRPPRLPRPRPRPNYAPRP	-0.0784
RRIRMRPPRLPRPRPRPGEQPRP	1.48
RRIRRRPPRLPRPRPRPGPQPRP	0.337
RRIRCRPPRLPRPRPRPAAQPRP	0.394
RRIRSRPPRLPRPRPRPMHKPRP	-0.112
RRIRHRPPRLPRPRPRPERFPRP	-0.0122
RRIRDRPPRLPRPRPRPQGKPRP	0.00439
RRIRGRPPRLPRPRPRPFKRPRP	0.301
RRIRLRPPRLPRPRPRPNFTPRP	-0.501
RRIRERPPRLPRPRPRPDISPRP	0.0621
RRIRKRPPRLPRPRPRPDPMPRP	0.86
RRIRYRPPRLPRPRPRPIMTPRP	-0.991
RRIRARPPRLPRPRPRPQRGPRP	0.468
RRIRTRPPRLPRPRPRPLIWPRP	0.361
RRIRPRPPRLPRPRPRPMCGPRP	-0.252
RRIRVRPPRLPRPRPRPPGTPRP	0.273
RRIRGRPPRLPRPRPRPNMNPRP	0.255
RRIRSRPPRLPRPRPRPDALPRP	0.353

Sequence	shrunken log2 fold change
RRIRERPPRLPRPRPRPGIHPRP	-0.502
RRIRIRPPRLPRPRPRPGIKPRP	-0.0876
RRIRIRPPRLPRPRPRPVEDPRP	-0.158
RRIRSRPPRLPRPRPRPQCMPRP	-0.584
RRIRYRPPRLPRPRPRPEFKPRP	0.0136
RRIRKRPPRLPRPRPRPMREPRP	1.4
RRIRLRPPRLPRPRPRPARPPRP	0.449
RRIRFRPPRLPRPRPRPVQPPRP	0.246
RRIRNRPPRLPRPRPRPDYWPRP	-0.21
RRIRCRPPRLPRPRPRPMLGPRP	-0.0961
RRIRWRPPRLPRPRPRPMYCPRP	0.0174
RRIRFRPPRLPRPRPRPRDRPRP	0.387
RRIRYRPPRLPRPRPRPLPYPRP	-0.156
RRIRYRPPRLPRPRPRPHMVPRP	-0.126
RRIRLRPPRLPRPRPRPYWHPRP	-0.61
RRIRARPPRLPRPRPRPAGYPRP	0.399
RRIRDRPPRLPRPRPRPRNFPRP	0.0881
RRIRMRPPRLPRPRPRPYSQPRP	-0.0394
RRIRNRPPRLPRPRPRPFLLPRP	-0.295
RRIRCRPPRLPRPRPRPMLPPRP	-0.00464
RRIRSRPPRLPRPRPRPENKPRP	-0.125
RRIRCRPPRLPRPRPRPQSSPRP	-0.103
RRIRSRPPRLPRPRPRPLVTPRP	0.0214
RRIRFRPPRLPRPRPRPLENPRP	-0.0435
RRIRWRPPRLPRPRPRPPVDPRP	0.494
